The values that follow come from US20260209359A1 (NEXTERA, published 2026).

The target of assay [1] is T1, HLA-A*02:01/MAGE-A4^230-239, soluble recombinant biotinylated pHLA (human, UniProt P04439 25-299 at identity 0.94); P61769 21-119, biotinylated).
T1 construct: Empty biotinylated HLA-A2 monomers (Tetramer Shop) loaded with synthetic peptide; also called MAGE-A4 pMHC; MAGE-A4-pHLA
Description: ELISA, biotinylated pHLA on neutravidin, protL-HRP.
Description: Dotted lines indicate the EC₅₀ value (concentration at which half of maximal binding signal is achieved).
Assay 1 described above was performed. ELISA plates were coated with 5 μg/mL NeutrAvidin in PBS and incubated 16 h/4° C. (step (a)) and blocked with 5% skim milk powder in PBST for 1 h/room temperature (RT) (step (c)). […] Bound phage particles were detected with an anti-Fd antibody (anti-M13-HRP (Amersham Biosciences)), whereas bound IgG1 and scDb was detected with HRP conjugated protein L (Genscript) (step (i)). […] Plates were developed with TMB solution and read at 450 nm using a microplate reader (step (k)). Between each layer, the plates were washed 3× with PBST (steps (b), (d), (f), (h), and (j)).

The target of assay [2] is T1, HLA-A*02:01/MAGE-A4^230-239, soluble …. Description: SPR, biotinylated pHLA on neutravidin chip, Fab injected (Assay 6-1); Fab, not scDb.
The target of assay [3] is T2, HLA-A*02:01/MAGE-A4^230-239 displayed on cells (MAGE-A4^230-239 pulsed T2 cells; NCI-H1703, A375, THP1, … (human, UniProt P04439 25-365 at identity 0.94); P61769 21-119). Description: cell-based or functional assay.
For assay [4], the target named is T1, HLA-A*02:01/MAGE-A4^230-239, soluble …. Description: ELISA, soluble biotinylated pHLA on neutravidin, scDb, protL-HRP.
Description: ELISA plates were coated with 5 μg/mL NeutrAvidin in PBS and incubated 16 h/4° C. (step (a)) and blocked with 5% skim milk powder in PBST for 1 h/room temperature (RT) (step (c)). […] Bound phage particles were detected with an anti-Fd antibody (anti-M13-HRP (Amersham Biosciences)), whereas bound IgG1 and scDb was detected with HRP conjugated protein L (Genscript) (step (i)). […] Plates were developed with TMB solution and read at 450 nm using a microplate reader (step (k)). Between each layer, the plates were washed 3× with PBST (steps (b), (d), (f), (h), and (j)).
For assay [5] the target is unchanged. Description: SPR, biotinylated pHLA on neutravidin chip, scDb without His-tag injected (Assay 6-2). On the technique in general: SPR reads the build-up and loss of mass on a sensor chip optically.
Assay [6] has as its target T2, HLA-A*02:01/MAGE-A4^230-239 displayed …. Description: cell-based or functional assay. The source holds these as a separate data set.
Assay [7] deals with T3, HLA-A*02:01 loaded with MAGE-A2 homologue peptide, soluble biotinylated (human, UniProt P04439 25-299 at identity 0.94); P61769 21-119, biotinylated).
T3 construct: HLA monomer as for m1
Description: pHLA capture ELISA: biotinylated pHLA on neutravidin, scFv-phage, anti-M13 antibody detection [cont.) C]. (In general: ELISA stands for enzyme-linked immunosorbent assay.)

The target in assay [8] is T4, HLA-A*02:01 loaded with MAGE-A12 homologue peptide, soluble biotinylated (human, UniProt P04439 25-299 at identity 0.94); P61769 21-119, biotinylated).
T4 construct: HLA monomer as for m1
The description is as above.

In assay [9] the target is T5, HLA-A*02:01 loaded with MAGE-A9 homologue peptide, soluble biotinylated (human, UniProt P04439 25-299 at identity 0.94); P61769 21-119, biotinylated).
T5 construct: HLA monomer as for m1
The description is as above.

Assay [10] deals with T6, HLA-A*02:01 loaded with MAGE-B10 homologue peptide, soluble biotinylated (human, UniProt P04439 25-299 at identity 0.94); P61769 21-119, biotinylated).
T6 construct: HLA monomer as for m1
The assay is described as above.

Assay [11] deals with T7, HLA-A*02:01 loaded with MAGE-A3 homologue peptide, soluble biotinylated (human, UniProt P04439 25-299 at identity 0.94); P61769 21-119, biotinylated).
T7 construct: HLA monomer as for m1
The assay is described as above.

The target of assay [12] is T8, HLA-A*02:01 loaded with MAGE-B4 homologue peptide, soluble biotinylated (human, UniProt P04439 25-299 at identity 0.94); P61769 21-119, biotinylated).
T8 construct: HLA monomer as for m1
Described as above.

Assay [13] concerns the target T9, HLA-A*02:01 loaded with MAGE-B6 homologue peptide, soluble biotinylated (human, UniProt P04439 25-299 at identity 0.94); P61769 21-119, biotinylated).
T9 construct: HLA monomer as for m1
The assay is described as above.

Assay [14] deals with T10, HLA-A*02:01 loaded with MAGE-B2 homologue peptide, soluble biotinylated (human, UniProt P04439 25-299 at identity 0.94); P61769 21-119, biotinylated).
T10 construct: HLA monomer as for m1
Described as above.

Assay [15] addresses T11, HLA-A*02:01 loaded with MAGE-A10 homologue peptide, soluble biotinylated (human, UniProt P04439 25-299 at identity 0.94); P61769 21-119, biotinylated).
T11 construct: HLA monomer as for m1
The assay is described as above.

Assay [16] concerns the target T12, HLA-A*02:01 loaded with MAGE-C2 homologue peptide, soluble biotinylated (human, UniProt P04439 25-299 at identity 0.94); P61769 21-119, biotinylated).
T12 construct: HLA monomer as for m1
The assay is described as above.

Assay [17] concerns the target T13, HLA-A*02:01 loaded with MAGE-A1 homologue peptide, soluble biotinylated (human, UniProt P04439 25-299 at identity 0.94); P61769 21-119, biotinylated).
T13 construct: HLA monomer as for m1
Described as above.

Assay [18] addresses T14, HLA-A*02:01 loaded with MAGE-A11 homologue peptide, soluble biotinylated (human, UniProt P04439 25-299 at identity 0.94); P61769 21-119, biotinylated).
T14 construct: HLA monomer as for m1
The description is as above.

Assay [19] addresses T15, HLA-A*02:01 loaded with MAGE-A8 homologue peptide, soluble biotinylated (human, UniProt P04439 25-299 at identity 0.94); P61769 21-119, biotinylated).
T15 construct: HLA monomer as for m1
Description: pHLA phage capture ELISA.

A word on the EC50: it is the concentration needed to bring the measured effect to its halfway point. One may read the Kd as the constant that tells how readily two partners part at equilibrium.

B1: 1-H02 full length human IgG1 (antibody, V domains shown)
VH: QVQLVQSGAEVKKPGASVKVSCKVSGYTLTELSMHWVRQAPGKGLEWMGGFDPEDGETIYAQKFQGRVTMTEDTSTDTAYMELSSLRSEDTAVYYCATDQGSSWGFYWGQGTLVTVSS
VL: not shown
notes: also called 1-H02 hIgG1; 1-H02 IgG
Turning to B1, the EC50 in assay [1] was found to be 1.1 nM.

B2: 1-H02 Fab (Fab, V domains shown)
VH: QVQLVQSGAEVKKPGASVKVSCKVSGYTLTELSMHWVRQAPGKGLEWMGGFDPEDGETIYAQKFQGRVTMTEDTSTDTAYMELSSLRSEDTAVYYCATDQGSSWGFYWGQGTLVTVSS
VL: not shown
notes: Fab format
B2: the Kd in [2] is 1410 nM.

B3: AM17 scDb (bispecific antibody)
chain: DIRLTQSPSSLSASVGDRVTMTCRASQTVATYVNWYQQKPGRAPKLLMYVTSIRQSEVPSRFSGDGFGTDFTLTINPLQPDDFATYYCQQAYSTPVTFGQGTKLEIKGGGGSEVQLQQSGPELVKPGASMKISCKASGYSFTGYTMNWVKQSHGKNLEWMGLINPYKGVSTYNQKFKDKATLTVDKSSSTAYMELLSLTSEDSAVYYCARSGYYGDSDWYFDVWGAGTTVTVSSGGGGSGGGGSGGGGSDIQMTQTTSSLSASLGDRVTISCRASQDIRNYLNWYQQKPDGTVKLLIYYTSRLHSGVPSKFSGSGSGTDYSLTISNLEQEDIATYFCQQGNTLPWTFAGGTKLEIKGGGGSQVQLVQSGAEVKKPGASVKVSCKVSGYTLTELSMHWVRQAPGKGLEWMGGFDPEDGETIYAQKFQGRVTMTEDTSTDTAYMELSSLRSEDTAVYYCATDQGSSWGFYWGQGTLVTVSS
notes: as m68; without a His-tag in the SPR assay
As to B3, the “IFNγ EC50 vs. target positive cells (pM)” value in assay [3] amounted to 10.9 pM. Moreover, the EC50 in assay [4] was found to be 0.3 nM. Besides, in assay [5], the Kd worked out at 10.8 nM. For the same molecule, in [6], the “EC50 vs. NCI-H1703 (pM), T-cell specific killing” value was 2.9 pM.

B4: AM2 scFv displayed on phage (scFv)
scFv: QVQLVQSGAEVKKPGASVKVSCKVSGYTLTELSMHWVRQAPGKGLEWMGGFDPEDGETIYAQKFQGRVTMTEDTSTDTAYMELSSLRSEDTAVYYCATDQGSSWGFYWGQGTLVTVSSKLSGSASAPKLEEGEFSEARVDIRVTQSPSSLSASVGDRVTITCRASQNIMWYLNWYQQKPGKAPKLLIYAASSLQSGVPSRFSGSGSGTDFTLTISSLQPEDFATYYCQQSYSTPYTFGQGTKLEIK
notes: scFv on the surface of phage particles; also called AM2 phages
Turning to B4, the binding result in assay [7], in assay [8], in [9], in assay [10], in assay [11] and in [12] was “no binding (tested: 10^9 phages/well)” in each case. Besides, the binding result in assay [13], in [14], in [15], in assay [16], in assay [17] and in assay [18] was “no binding (tested: 10^9 phages/well)” in each case. Moreover, the “fold reduction of binding as compared to binding to HLA-A*02:01/MAGE-A4^230-239” value in assay [19] is at least 2 fold.
